Measured values reported in US20200405610A1, “COSMETIC COMPOSITION” (Shaanxi Huikang Bio-Tech Co., Ltd., priority 2016, published 2020).

Assay: Isoelectric point of the pentapeptide
Assay type: physicochemical

Substance: Tyr-Gly-Phe-Gly-Gly (YGFGG; OGP(10-14); listed as Homo sapiens)
- isoelectric point: 5.52
